Changes are numbered by the printed parent chain. Names may count otherwise.
B1: wild-type human geranylgeranyl pyrophosphate synthase (enzyme)
chain: MEKTQETVQRILLEPYKYLLQLPGKQVRTKLSQAFNHWLKVPEDKLQIIIEVTEMLHNASLLIDDIEDNSKLRRGFPVAHSIYGIPSVINSANYVYFLGLEKVLTLDHPDAVKLFTRQLLELHQGQGLDIYWRDNYTCPTEEEYKAMVLQKTGGLFGLAVGLMQLFSDYKEDLKPLLNTLGLFFQIRDDYANLHSKEYSENKSFCEDLTEGKFSFPTIHAIWSRPESTQVQNILRQRTENIDIKKYCVHYLEDVGSFEYTRNTLKELEAKAYKQIDARGGNPELVALVKHLSKMFKEENE
notes: geranylgeranyl pyrophosphate synthase (GGPPS), human; theoretical subunit mass printed as 37,424 Da; The printed subunit mass of 37,424 Da is larger than that of the untagged natural protein as I recall it, so a tag was probably kept; also called GGPPS; WT GGPPS
B2: human GGPPS Y246D/C205A mutant (enzyme)
chain: B1 chain with C205A, Y246D
notes: also called DA; DA mutant
B3: human GGPPS Y246K/C247L mutant (enzyme)
chain: B1 chain with Y246K, C247L
notes: also called KL; KL mutant
B4: human GGPPS Y246D/C247L mutant (enzyme)
chain: B1 chain with Y246D, C247L
notes: also called DL; DL mutant

Tests used:
[1] = target: T1, geranylgeranyl pyrophosphate synthase (GGPPS) (Homo sapiens, UniProt O95749, Y246D/C247L)
T1 construct: gene GGPS1

[2] = target: the molecule itself; test: SEC; HiLoad 16/600 Superdex 200 step of the purification; 10 mM HEPES pH 7.5, 500 mM NaCl, 2 mM β-mercaptoethanol, 5% glycerol; mass estimated from a standard curve; self-association
[3] = target: the molecule itself; test: differential scanning fluorimetry (Tm) + native gel or EMSA; oligomeric state inferred from Tm without inhibitor (10 mM HEPES pH 7.5, 100 mM NaCl, 3 mM MgCl2, 0.5 mM TCEP, 5 μM protein), supported by native-PAGE (S2 Fig); self-association

T1 sequence (O95749 whole entry Y246D/C247L): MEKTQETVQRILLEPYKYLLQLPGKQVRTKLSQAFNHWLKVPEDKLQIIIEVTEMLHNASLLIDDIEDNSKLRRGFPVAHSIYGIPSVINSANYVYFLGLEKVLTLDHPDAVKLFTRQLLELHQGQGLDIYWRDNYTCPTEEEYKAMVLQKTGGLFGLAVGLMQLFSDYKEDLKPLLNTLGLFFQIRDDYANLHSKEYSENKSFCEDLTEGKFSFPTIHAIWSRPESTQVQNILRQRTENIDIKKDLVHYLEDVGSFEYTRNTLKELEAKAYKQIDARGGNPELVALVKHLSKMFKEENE

Molecule	stoichiometry N [2]	stoichiometry N [3]	also measured
C=C(C)CCO[P@@](=O)(O)OP(=O)(O)O [IPP, isopentenyl pyrophosphate]	–	–	X-ray crystal structure, 2.1 Å [1]: clearly indicated the presence of IPP within its anticipated binding site in one subunit of the dimer mutant
B1	6	–	–
B2	–	2	–
B3	–	2	–
B4	2	–	–
